Measured values from paper doi:10.1101/2022.06.13.495990 (bioRxiv, 2022).

Target: mCherry-RAB28 (UniProt Q99KL7 1-221)
Test: co-IP

B1: FLAG-CFAP418 (natural protein)
chain: MAKDLDELLDEVETKFCRLDPLRLDLGERPKGDGGGGSHSGDRNGAQEKETLRSTETFKKEDDLDSLINEIFEEPDFDRKSFQKFKSKSSSNTCVRAPMQGVSKSCSPVYLSGSAIPCGIGTNTSQRACDRLRCVACDFRIVSYNDYMWDKSCDYLFFRNNMPEFHKLKTKLIEKKGARAYACQCSWRTVEELTDLQTDHQLRWVCGKH
fraction of CFAP418 pulled down: ~0.1%
